The chains are these.
B1: Azoarcus group I ribozyme (parent)
chain: GUGCCUUGCGCCGGGAAACCACGCAAGGGAUGGUGUCAAAUUCGGCGAAACCUAAGCGCCCGCCCGGGCGUAUGGCAACGCCGAGCCAAGCUUCGGCGCCUGCGCCGAUGAAGGUGUAGAGACUAGACGGCACCCACCUAAGGCAAACGCUAUGGUGAAGGCAUAGUCCAGGGAGUGGCGAAAGUCACACAAACCGG

This is an account of results in the RNAGym collection of RNA variant scans (doi:10.1093/molbev/msab373).

Variants of B1 are the subject of the series. Put plainly: reverse-splicing fitness (ratio to wild type); higher = more active; in vitro selection; Mg2+ level not given. The procedure, abridged: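 An in vitro group I ribozyme library with randomized positions was T7-transcribed and gel-purified. In triplicate, 10 pmol RNA in EPPS pH 7.5 was reacted with 50 pmoles of a 30-nt RNA substrate for 1 h at 37 °C across several added MgCl2 levels (1–48 mM), then stopped with EDTA. Products were reverse transcribed from a substrate-complementary primer, PCR-amplified and sequenced (HiSeq 4000). Fitness is a variant's read proportion after selection over that before, normalised to wild type.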
In the case of GUGCCUUGCGCCGGGAAACCACGCAAGGGAUGGUGUCAAAUUCGGCGAAACCUAAGCGCCCGCCCGGGCGUAUGGCAACGCUGAGCCAAGCUUCGGCGCCUGCGCCGAUGCAGGUGUAGCGACUAGACGGCACCCACCUAAGGCCAACGCUAUGGUGAAGGCAUAGUCUAGGGAGUGGCGAAAGUCACACAAACCGG [C82U A111C A120C A145C C169U], the reverse-splicing fitness came out at 0.0105.

As to GUGCCUUGCGCCGGGAAACCACGCAAGGGAUGGUGUCAAAUUCGGCGAAACCUAAGCGCCCGCCCGGGCGUAUGGCAACGCUGAGCCAAGCUUCGGCGCCUGCGCCGAUGCAGGUGUAGCGACUAGACGGCACCCACCUAAGGCGAACGGUAUGGUGAAGGCAUAGUCAAGGGAGCGGCGAAAGUCACACAAACCGG [C82U A111C A120C A145G C150G C169A U176C], the reverse-splicing fitness is 0.0116.

For GUGCCUUGCGCCGGGAAACCACGCAAGGGAUGGUGUCAAAUUCGGCGAAACCUAAGCGCCCGCCCGGGCGUAUGGCAACGCUGAGCCAAGCUUCGGCGCCUGCGCCGAUGCAGGUGUAGCGACUAGACGGCACCCACCUAAGGCGAACGGUAUGGUGAAGGCAUAGUCAAGGGAGAGGCGAAAGUCACACAAACCGG [C82U A111C A120C A145G C150G C169A U176A], the reverse-splicing fitness amounted to 0.0111.

For GUGCCUUGCGCCGGGAAACCACGCAAGGGAUGGUGUCAAAUUCGGCGAAACCUAAGCGCCCGCCCGGGCGUAUGGCAACGCUGAGCCAAGCUUCGGCGCCUGCGCCGAUGCAGGUGUAGCGACUAGACGGCACCCACCUAAGGCCAACGCUAUGGUGAAGGCAUAGUCUAGGGAGCGGCGAAAGUCACACAAACCGG [C82U A111C A120C A145C C169U U176C], the reverse-splicing fitness was 0.0147.

Regarding GUGCCUUGCGCCGGGAAACCACGCAAGGGAUGGUGUCAAAUUCGGCGAAACCUAAGCGCCCGCCCGGGCGUAUGGCAACGCUGAGCCAAGCUUCGGCGCCUGCGCCGAUGCAGGUGUAGCGACUAGACGGCACCCACCUAAGGCCAACGCUAUGGUGAAGGCAUAGUCUAGGGAGGGGCGAAAGUCACACAAACCGG [C82U A111C A120C A145C C169U U176G], the reverse-splicing fitness stood at 0.00426.

As to GUGCCUUGCGCCGGGAAACCACGCAAGGGAUGGUGUCAAAUUCGGCGAAACCUAAGCGCCCGCCCGGGCGUAUGGCAACGCUGAGCCAAGCUUCGGCGCCUGCGCCGAUGCAGGUGUAGCGACUAGACGGCACCCACCUAAGGCCAACGCUAUGGUGAAGGCAUAGUCUAGGGAGAGGCGAAAGUCACACAAACCGG [C82U A111C A120C A145C C169U U176A], the reverse-splicing fitness amounted to 0.0162.

With GUGCCUUGCGCCGGGAAACCACGCAAGGGAUGGUGUCAAAUUCGGCGAAACCUAAGCGCCCGCCCGGGCGUAUGGCAACGCUGAGCCAAGCUUCGGCGCCUGCGCCGAUGCAGGUGUAGCGACUAGACGGCACCCACCUAAGGCGAACGAUAUGGUGAAGGCAUAGUCCAGGGAGCGGCGAAAGUCACACAAACCGG [C82U A111C A120C A145G C150A U176C], the reverse-splicing fitness worked out at 0.0208.

For GUGCCUUGCGCCGGGAAACCACGCAAGGGAUGGUGUCAAAUUCGGCGAAACCUAAGCGCCCGCCCGGGCGUAUGGCAACGCUGAGCCAAGCUUCGGCGCCUGCGCCGAUGCAGGUGUAGCGACUAGACGGCACCCACCUAAGGCGAACGAUAUGGUGAAGGCAUAGUCCAGGGAGGGGCGAAAGUCACACAAACCGG [C82U A111C A120C A145G C150A U176G], the reverse-splicing fitness came to 0.00689.

GUGCCUUGCGCCGGGAAACCACGCAAGGGAUGGUGUCAAAUUCGGCGAAACCUAAGCGCCCGCCCGGGCGUAUGGCAACGCUGAGCCAAGCUUCGGCGCCUGCGCCGAUGCAGGUGUAGCGACUAGACGGCACCCACCUAAGGCGAACGAUAUGGUGAAGGCAUAGUCCAGGGAGAGGCGAAAGUCACACAAACCGG [C82U A111C A120C A145G C150A U176A]: the reverse-splicing fitness is 0.00976.

Take GUGCCUUGCGCCGGGAAACCACGCAAGGGAUGGUGUCAAAUUCGGCGAAACCUAAGCGCCCGCCCGGGCGUAUGGCAACGCUGAGCCAAGCUUCGGCGCCUGCGCCGAUGCAGGUGUAGCGACUAGACGGCACCCACCUAAGGCGAACGAUAUGGUGAAGGCAUAGUCAAGGGAGCGGCGAAAGUCACACAAACCGG [C82U A111C A120C A145G C150A C169A U176C]: the reverse-splicing fitness was determined as 0.0198.

Regarding GUGCCUUGCGCCGGGAAACCACGCAAGGGAUGGUGUCAAAUUCGGCGAAACCUAAGCGCCCGCCCGGGCGUAUGGCAACGCUGAGCCAAGCUUCGGCGCCUGCGCCGAUGCAGGUGUAGCGACUAGACGGCACCCACCUAAGGCGAACGAUAUGGUGAAGGCAUAGUCAAGGGAGGGGCGAAAGUCACACAAACCGG [C82U A111C A120C A145G C150A C169A U176G], the reverse-splicing fitness is 0.00718.

Take GUGCCUUGCGCCGGGAAACCACGCAAGGGAUGGUGUCAAAUUCGGCGAAACCUAAGCGCCCGCCCGGGCGUAUGGCAACGCUGAGCCAAGCUUCGGCGCCUGCGCCGAUGCAGGUGUAGCGACUAGACGGCACCCACCUAAGGCGAACGAUAUGGUGAAGGCAUAGUCAAGGGAGAGGCGAAAGUCACACAAACCGG [C82U A111C A120C A145G C150A C169A U176A]: the reverse-splicing fitness was 0.0163.

With GUGCCUUGCGCCGGGAAACCACGCAAGGGAUGGUGUCAAAUUCGGCGAAACCUAAGCGCCCGCCCGGGCGUAUGGCAACGCUGAGCCAAGCUUCGGCGCCUGCGCCGAUGCAGGUGUAGCGACUAGACGGCACCCACCUAAGGCCAACGCUAUGGUGAAGGCAUAGUCCAGGGAGGGGCGAAAGUCACACAAACCGG [C82U A111C A120C A145C U176G], the reverse-splicing fitness came to 0.00562.

Take GUGCCUUGCGCCGGGAAACCACGCAAGGGAUGGUGUCAAAUUCGGCGAAACCUAAGCGCCCGCCCGGGCGUAUGGCAACGCUGAGCCAAGCUUCGGCGCCUGCGCCGAUGCAGGUGUAGCGACUAGACGGCACCCACCUAAGGCCAACGCUAUGGUGAAGGCAUAGUCCAGGGAGCGGCGAAAGUCACACAAACCGG [C82U A111C A120C A145C U176C]: the reverse-splicing fitness is 0.0155.

As for GUGCCUUGCGCCGGGAAACCACGCAAGGGAUGGUGUCAAAUUCGGCGAAACCUAAGCGCCCGCCCGGGCGUAUGGCAACGCUGAGCCAAGCUUCGGCGCCUGCGCCGAUGCAGGUGUAGCGACUAGACGGCACCCACCUAAGGCCAACGCUAUGGUGAAGGCAUAGUCCAGGGAGAGGCGAAAGUCACACAAACCGG [C82U A111C A120C A145C U176A], the reverse-splicing fitness was 0.00981.
